In publication PMC4748334:

Biological target: Francisella tularensis polyphosphate kinase 2 (FtPPK2) (Francisella tularensis subspecies tularensis SCHU S4)
Assay: crystal structure

“Francisella tularensis polyphosphate kinase 2 (FtPPK2) (enzyme)” showed a stoichiometry N of 4.
